Measurements from patent US20240117030A1 (Pfizer, published 2024).
Substitutions are numbered along the chain they refer to. Like-named read-outs stand apart in the source and are kept apart here.

Tests used:
Test in all cases: cell-based or functional assay
[1] = target: T1, human IL-13 (human, UniProt P35225 35-146)
[2] = target: T1, human IL-13; remark: listed apart in the source
[3] = target: T2, human IL-33 mm2 Cys (human, UniProt O95760 112-270, limits assumed)
T2 sequence (looked up): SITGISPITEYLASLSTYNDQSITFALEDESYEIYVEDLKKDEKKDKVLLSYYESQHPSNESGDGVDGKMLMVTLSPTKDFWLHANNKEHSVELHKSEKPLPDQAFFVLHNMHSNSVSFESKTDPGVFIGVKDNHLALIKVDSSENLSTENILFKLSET

[4] = target: T3, recombinant human IL-33 (R&D Systems 3625-IL), reduced with DTT (human, UniProt O95760 112-270, limits assumed)
T3 sequence (looked up): T2 sequence (looked up) with S97C, S116C, S121C, S148C

[5] = target: recombinant human TSLP (glycosylated long form) (human, UniProt Q969D9 29-159)
[6] = target: T4, recombinant human IL-4 (human, UniProt P05112 25-153)
T4 sequence (looked up): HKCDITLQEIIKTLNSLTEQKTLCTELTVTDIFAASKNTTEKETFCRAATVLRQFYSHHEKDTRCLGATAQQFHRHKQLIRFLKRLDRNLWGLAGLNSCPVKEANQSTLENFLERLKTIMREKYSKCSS

[7] = target: recombinant human IL-13 (human, UniProt P35225 35-146)
[8] = target: recombinant human IL-13 (human, UniProt P35225 35-146); remark: listed apart in the source
[9] = target: T5, recombinant human IL-4 (human, UniProt P05112 25-153); remark: listed apart in the source
T5 sequence (looked up): T4 sequence (looked up)

T1 sequence (P35225 35-146 limits assumed, form in doubt): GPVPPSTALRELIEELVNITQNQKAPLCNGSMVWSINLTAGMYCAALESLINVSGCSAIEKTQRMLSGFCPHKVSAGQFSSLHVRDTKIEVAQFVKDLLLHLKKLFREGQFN

B1: IL13-1307 (antibody, IgG1, V domains shown)
VH: EVQLVESGGGLVQPGGSLRLSCAASGFTFSSYAMSWVRQAPGKGLEWVASISSGDTTYYPDSVKGRFTISRDNAKNSLYLQMNSLRAEDTAVYYCARLDGYYFGFPYWGQGTLVTVSS
VL: DIQMTQSPSSLSASVGDRVTITCKASESVDHSGSSLMHWYQQKPGKAPKLLIYRASNLESGVPSRFSGSGSGTDFTLTISSLQPEDFATYYCQQSNEDPWTFGGGTKVEIK
CD23 IC50 [pM] [1]: 214 pM
pSTAT6 IC50 [pM] [1]: 225 pM
CD23: Fold bioactivity relative to IL13-0001 [2]: 0.03 fold
CD23: Fold bioactivity relative to IL13-1307 [2]: 1 fold
CD23 IC50 [pM] [2]: 306 pM
pSTAT6: Fold bioactivity relative to IL13-0001 [2]: 0.7 fold
pSTAT6: Fold bioactivity relative to IL13-1307 [2]: 1 fold
pSTAT6 IC50 [pM] [2]: 140 pM

B2: IL13-1283 (antibody, human IgG1, kappa, V domains shown)
VH: B1 VH with S30I, D55G, T56N, P106A
VL: DIQMTQSPSSLSASVGDRVTITCKASESVDNYGKSLMHWYQQKPGKAPKLLIYRASNLESGVPSRFSGSGSGTDFTLTISSLQPEDFATYYCQQSNEDPWTFGGGTKVEIKR
CD23 IC50 [pM] [1]: 261 pM
pSTAT6 IC50 [pM] [1]: 427 pM

B3: IL13-1306 (antibody, mouse IgG1, V domains shown)
VH: EVKLVESGGDLVKPGGSLKLSCAASGFTFSSYAMSWVRQSPDKRLEWVASISSGDTTYYPDSVKGRFTISRDNARNILYLQMTSLRSEDTAMYYCARLDGYYFGFPYWGQGTLVTVSA
VL: DTVLTQSPASLAVSLGQRATISCKASESVDHSGSSLMHWYQQKPGQSPKLLIYRASNLESGIPARFSGSGSRTDFTLTINPVEADDVATYYCQQSNEDPWTFGGGTKLEIK
pSTAT6 IC50 [pM] [1]: 290 pM

B4: IL33-0216 (antibody, human IgG1, kappa, V domains shown)
VH: EVQLVESGGGLVQPGGSLRLSCAASGFTFSSYWMYWVRQAPGKGLEWVAAITPNAGEDYYPESVKGRFTISRDNAKNSLYLQMNSLRAEDTAVYYCARGHYYYTSYSLGYWGQGTLVTVSS
VL: DIQMTQSPSSLSASVGDRVTITCKASQNIDKHLDWYQQKPGKAPKLLIYFTNNLQTGVPSRFSGSGSGTDFTLTISSLQPEDFATYYCFQYNQGWTFGGGTKVEIKR
IC50 [pM] versus human IL-33 mm2 Cys (HEK-Blue SEAP) [3]: 237 pM
IC50 [pM] versus human reduced IL-33 (R&D), Experiment 1 (HEK-Blue SEAP) [4]: ~677 pM
IC50 [pM] versus human reduced IL-33 (R&D), Experiment 2 (HEK-Blue SEAP) [4]: ~1240 pM

B5: IL33-0224 (antibody, human IgG1, V domains shown)
VH: B4 VH
VL: DIQMTQSPSSLSASVGDRVTITCRASQPISKHLDWYQQKPGKAPKLLIYFTNNLQTGVPSRFSGSGSGTDFTLTISSLQPEDFATYYCFQYNQGWTFGGGTKVEIK
IC50 [pM] versus human IL-33 mm2 Cys (HEK-Blue SEAP) [3]: 115 pM

B6: TSLP-0820 (antibody, human IgG1, lambda, V domains shown)
VH: EMQLVESGGGLVQPGGSLRLSCAASGFTFRTYGMHWVRQAPGKGLEWVAVIWYDGSNKHYADSVKGRFTISRDNAKNSLYLQMNSLRAEDTAVYYCARAPQWYLVHEAFDIWGQGTMVTVSS
VL: SYVLTQPPSVSVAPGQTARITCGGNNLGSKSVHWYQQKPGQAPVLVVYDDSDRPSWIPERFSGSNSGNTATLTISRGEAGDEADYYCQVWDSSSDHVVFGGGTKLTVLG
a-TSLP TARC bioassay (fold change to TSLP-0001) [5]: 2.5 fold

B7: TSLP-2002 (antibody, human IgG1, lambda, V domains shown)
VH: B6 VH
VL: B6 VL with S51K, S93K
a-TSLP TARC bioassay (fold change to TSLP-0001) [5]: 5.1 fold

B8: TSLP-2004 (antibody, human IgG1, lambda, V domains shown)
VH: B6 VH
VL: B6 VL with S92K
a-TSLP TARC bioassay (fold change to TSLP-0001) [5]: 6.4 fold

B9: TSLP-2000 (antibody, human IgG1, lambda, V domains shown)
VH: B6 VH
VL: B6 VL with D95K
a-TSLP TARC bioassay (fold change to TSLP-0001) [5]: 7.2 fold

B10: IL4-0002 (antibody, human IgG1, kappa)
heavy: EVTLRESGPALVKPTQTLTLTCTFSGFSLSNFGEGLSWIRQPPGKGLEWLAHIYWDDDKRYNPSLKSRLTISKDTSRNQVVLTMTNMDPVDTATYYCARRETVFYWYFDVWGQGTTVTVSSASTKGPSVFPLAPSSKSTSGGTAALGCLVKDYFPEPVTVSWNSGALTSGVHTFPAVLQSSGLYSLSSVVTVPSSSLGTQTYICNVNHKPSNTKVDKKVEPKSCDKTHTCPPCPAPEAAGAPSVFLFPPKPKDTLMISRTPEVTCVVVDVSHEDPEVKFNWYVDGVEVHNAKTKPREEQYNSTYRVVSVLTVLHQDWLNGKEYKCKVSNKALPAPIEKTISKAKGQPREPQVYTLPPSREEMTKNQVSLTCLVKGFYPSDIAVEWESNGQPENNYKTTPPVLDSDGSFFLYSKLTVDKSRWQQGNVFSCSVMHEALHNHYTQKSLSLSPGK
light: DIQMTQSPSSLSASVGDRVTITCKASQSVDEDGDSYMNWYQQKPGKAPKLLIYAASNLESGVPSRFSGSGSGTDFTLTISSLQPEDFATYYCQQSNEDPPTFGGGTKVEIKRTVAAPSVFIFPPSDEQLKSGTASVVCLLNNFYPREAKVQWKVDNALQSGNSQESVTEQDSKDSTYSLSSTLTLSKADYEKHKVYACEVTHQGLSSPVTKSFNRGEC
a-hIL-4 bioassay IC50, pM) [6]: 3.42 pM

B11: IL13-0001 (antibody, human IgG1, kappa, V domains shown)
VH: B1 VH with L98N, D99E, F105L, P106T, Y107L
VL: B2 VL with N31H, Y32F, K34W, M37V
a-hIL-13 bioassay (IC50, pM) [7]: 4.83 pM

B12: IL413TSLP-1028 (other)
heavy: not shown
chain 1: DIQMTQSPSSLSASVGDRVTITCKASESVDHFGWSLVHWYQQKPGKAPKLLIYRASNLESGVPSRFSGSGSGTDFTLTISSLQPEDFATYYCQQSNEDPWTFGGGTKVEIKRTVAAPSVFIFPPSDEQLKSGTASVVCLLNNFYPREAKVQWKVDNALQSGNSQESVTEQDSKDSTYSLSSTLTLSKADYEKHKVYACEVTHQGLSSPVTKSFNRGECGGGGSEVTLRESGPALVKPTQTLTLTCTFSGFSLSNFGEGLSWIRQPPGKGLEWLAHIYWDDDKRYNPSLKSRLTISKDTSRNQVVLTMTNMDPVDTATYYCARRETVFYWYFDVWGQGTTVTVSSASTKGPSVFPLAPSSKSTSGGTAALGCLVKDYFPEPVTVSWNSGALTSGVHTFPAVLQSSGLYSLSSVVTVPSSSLGTQTYICNVNHKPSNTKVDKKVEPKSCEKTHTCPPCPAPEAAGAPSVFLFPPKPKDTLMISRTPEVTCVVVDVSHEDPEVKFNWYVDGVEVHNAKTKPREEQYNSTYRVVSVLTVLHQDWLNGKEYKCKVSNKALPAPIEKTISKAKGQPREPQVYTLPPSREEMTKNQVSLTCEVKGFYPSDIAVEWESNGQPENNYKTTPPVLDSDGSFFLYSKLTVDKSRWQQGNVFSCSVLHEALHSHYTQKSLSLSPGK
light 1: SYVLTQPPSVSVAPGQTARITCGGNNLGSKSVHWYQQKPGQAPVLVVYDDSDRPSWIPERFSGSNSGNTATLTISRGEAGDEADYYCQVWDSSSKHVVFGGGTKLTVLGQPKAAPSVTLFPPSSEELQANKATLVCLISDFYPGAVTVAWKADSSPVKAGVETTTPSKQSNNKYAASSYLSLTPEQWKSHRSYSCQVTHEGSTVEKTVAPTECS
light 2: B10 light with K24R, D32E, E97K
chain 2: EVQLVESGGGLVQPGGSLRLSCAASGFTFSSYAMSWVRQAPGKGLEWVASISSGDTTYYPDSVKGRFTISRDNAKNSLYLQMNSLRAEDTAVYYCARNEGYYFGLTLWGQGTLVTVSSASTKGPSVFPLAPSSKSTSGGTAALGCLVKDYFPEPVTVSWNSGALTSGVHTFPAVLQSSGLYSLSSVVTVPSSSLGTQTYICNVNHKPSNTKVDKKVEPKSC
IC50 (median), IL-13 induced CD23 expression on human monocytes [8]: 12.9 pM
IC50 (median), IL-4 induced CD23 expression on human monocytes [9]: 12.8 pM

B13: IL413TSLP-1037 (other)
heavy: not shown
chain 1: B12 chain 1
light 1: B12 light 1 with S51K, S92K, K95D
light 2: B10 light with K24R, D32E, E97K
chain 2: B12 chain 2
IC50 (median), IL-13 induced CD23 expression on human monocytes [8]: 13.1 pM
IC50 (median), IL-4 induced CD23 expression on human monocytes [9]: 10.5 pM
